Results on three molecules are retold here after patent US20150246959A1 (US Dept. of Health and Human Services, published 2015).

What all share (assay): cell-based or functional assay
Assay [1] has as its target MAGE-A3 full-length protein processed and presented by HLA-DP4 on cells (human).
The target in assay [2] is MAGE-D4: 300-315 peptide presented by HLA-DP*0401 on 293-CIITA cells (human, UniProt P20036 29-260).
Assay [3] has as its target MAGE-A1/B4: 241-251 peptide presented by HLA-DP*0401 on 293-CIITA cells (human, UniProt P20036 29-260).
The target in assay [4] is MAGE-A2/A12: 248-258 peptide presented by HLA-DP*0401 on 293-CIITA cells (human, UniProt P20036 29-260).
Assay [5] concerns the target MAGE-A6: 248-258 peptide presented by HLA-DP*0401 on 293-CIITA cells (human, UniProt P20036 29-260).
Assay [6] has as its target MAGE-A3: 248-258 peptide presented by HLA-DP*0401 on 293-CIITA cells (human, UniProt P20036 29-260).
For assay [7], the target named is MAGE-C1: 113-123 peptide presented by HLA-DP*0401 on 293-CIITA cells (human, UniProt P20036 29-260).
Assay [8] concerns the target MAGE-A3: 243-258 peptide presented by HLA-DP*0401 on 293-CIITA cells (human, UniProt P20036 29-260).
Assay [9] deals with MAGE-A3: 243-255 peptide presented by HLA-DP*0401 on 293-CIITA cells (human, UniProt P20036 29-260).
The target of assay [10] is MAGE-D2: 413-428 peptide presented by HLA-DP*0401 on 293-CIITA cells (human, UniProt P20036 29-260).
For assay [11], the target named is MAGE-A3: 245-258 peptide presented by HLA-DP*0401 on 293-CIITA cells (human, UniProt P20036 29-260).
Assay [12] concerns the target MAGE-B2: 250-260 peptide presented by HLA-DP*0401 on 293-CIITA cells (human, UniProt P20036 29-260).
Assay [13] concerns the target Necdin: 237-247 peptide presented by HLA-DP*0401 on 293-CIITA cells (human, UniProt P20036 29-260).
Assay [14] has as its target MAGE-G1: 220-235 peptide presented by HLA-DP*0401 on 293-CIITA cells (human, UniProt P20036 29-260).
The target of assay [15] is MAGE-B16: 252-262 peptide presented by HLA-DP*0401 on 293-CIITA cells (human, UniProt P20036 29-260).
The target in assay [16] is MAGE-A3: 249-258 peptide presented by HLA-DP*0401 on 293-CIITA cells (human, UniProt P20036 29-260).
In assay [17] the target is MAGE-B10: 250-260 peptide presented by HLA-DP*0401 on 293-CIITA cells (human, UniProt P20036 29-260).
The target in assay [18] is MAGE-A4/A9: 249-259 peptide presented by HLA-DP*0401 on 293-CIITA cells (human, UniProt P20036 29-260).
Assay [19] concerns the target MAGE-A3: 243-256 peptide presented by HLA-DP*0401 on 293-CIITA cells (human, UniProt P20036 29-260).
Assay [20] deals with MAGE-A3: 247-258 peptide presented by HLA-DP*0401 on 293-CIITA cells (human, UniProt P20036 29-260).
In assay [21] the target is MAGE-A8: 251-261 peptide presented by HLA-DP*0401 on 293-CIITA cells (human, UniProt P20036 29-260).
In assay [22] the target is MAGE-L2: 582-597 peptide presented by HLA-DP*0401 on 293-CIITA cells (human, UniProt P20036 29-260).
Assay [23] addresses MAGE-A3: 246-258 peptide presented by HLA-DP*0401 on 293-CIITA cells (human, UniProt P20036 29-260).
Assay [24] concerns the target MAGE-A3: 243-253 peptide presented by HLA-DP*0401 on 293-CIITA cells (human, UniProt P20036 29-260).
Assay [25] has as its target MAGE-A3: 243-254 peptide presented by HLA-DP*0401 on 293-CIITA cells (human, UniProt P20036 29-260).

Chain of MAGE-A3 full-length protein processed and presented by HLA-DP4 on cells (human) (P20036 29-260, chain 1 of 2): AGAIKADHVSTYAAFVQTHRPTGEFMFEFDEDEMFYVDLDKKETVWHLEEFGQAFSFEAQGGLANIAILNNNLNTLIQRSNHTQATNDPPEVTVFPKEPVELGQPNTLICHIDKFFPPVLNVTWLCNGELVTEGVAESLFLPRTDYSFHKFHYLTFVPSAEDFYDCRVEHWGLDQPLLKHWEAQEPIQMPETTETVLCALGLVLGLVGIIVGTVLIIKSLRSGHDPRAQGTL
Chain of MAGE-A3 full-length protein processed and presented by HLA-DP4 on cells (human) (P43357 whole entry, chain 2 of 2, further chain): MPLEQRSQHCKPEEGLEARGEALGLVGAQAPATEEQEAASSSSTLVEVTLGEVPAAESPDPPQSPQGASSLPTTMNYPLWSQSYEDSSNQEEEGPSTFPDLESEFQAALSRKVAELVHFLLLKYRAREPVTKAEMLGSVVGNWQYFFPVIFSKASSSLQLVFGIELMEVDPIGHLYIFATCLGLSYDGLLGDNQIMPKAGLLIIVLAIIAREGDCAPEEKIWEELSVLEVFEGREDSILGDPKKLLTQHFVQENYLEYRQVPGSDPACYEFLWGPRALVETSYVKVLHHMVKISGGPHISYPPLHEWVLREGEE

B1: a1 substituted 6F9 TCR (alpha chain S116A) (TCR, V domains shown)
V domain 1: QTVTQSQPEMSVQEAETVTLSCTYDTSESDYYLFWYKQPPSRQMILVIRQEAYKQQNATENRFSVNFQKAAKSFSLKISDSQLGDAAMYFCALRASGTYKYIFGTGTRLKVLA
V domain 2: GAGVSQSPSNKVTEKGKDVELRCDPISGHTALYWYRQSLGQGLEFLIYFQGNSAPDKSGLPSDRFSAERTGGSVSTLTIQRTQQEDSAVYLCASIRTGPFFSGNTIYFGEGSWLTVVE
For the molecule B1, the “fold increase in anti-tumor activity (IFN-gamma) against wt 6F9 TCR, CD4+ enriched PBL” value in assay [1] was approximately 2 fold.

B2: a2 substituted 6F9 TCR (alpha chain S117A) (TCR, V domains shown)
V domain 1: QTVTQSQPEMSVQEAETVTLSCTYDTSESDYYLFWYKQPPSRQMILVIRQEAYKQQNATENRFSVNFQKAAKSFSLKISDSQLGDAAMYFCALRSAGTYKYIFGTGTRLKVLA
V domain 2: GAGVSQSPSNKVTEKGKDVELRCDPISGHTALYWYRQSLGQGLEFLIYFQGNSAPDKSGLPSDRFSAERTGGSVSTLTIQRTQQEDSAVYLCASIRTGPFFSGNTIYFGEGSWLTVVE
Take B2: the “fold increase in anti-tumor activity (IFN-gamma) against wt 6F9 TCR, CD4+ enriched PBL” value in assay [1] was approximately 2 fold.

B3: 6F9 TCR (TCR)
TCR alpha: QTVTQSQPEMSVQEAETVTLSCTYDTSESDYYLFWYKQPPSRQMILVIRQEAYKQQNATENRFSVNFQKAAKSFSLKISDSQLGDAAMYFCALRSSGTYKYIFGTGTRLKVLANIQNPDPAVYQLRDSKSSDKSVCLFTDFDSQTNVSQSKDSDVYITDKTVLDMRSMDFKSNSAVAWSNKSDFACANAFNNSIIPEDTFFPSPESSCDVKLVEKSFETDTNLNFQNLSVIGFRILLLKVAGFNLLMTLRLWSS
TCR beta: GAGVSQSPSNKVTEKGKDVELRCDPISGHTALYWYRQSLGQGLEFLIYFQGNSAPDKSGLPSDRFSAERTGGSVSTLTIQRTQQEDSAVYLCASIRTGPFFSGNTIYFGEGSWLTVVEDLNKVFPPEVAVFEPSEAEISHTQKATLVCLATGFFPDHVELSWWVNGKEVHSGVSTDPQPLKEQPALNDSRYCLSSRLRVSATFWQNPRNHFRCQVQFYGLSENDEWTQDRAKPVTQIVSAEAWGRADCGFTSVSYQQGVLSATILYEILLGKATLYAVLVSALVLMAMVKRKDF
As for B3, the “IFN-g (pg/ml); CD4+ T cells of PBMC-1; 293-CIITA pulsed with peptide” value was found to be 193 pg/mL in [2]; 129 pg/mL in assay [3]; 33 pg/mL in [4]; 6440 pg/mL in assay [5]; 6220 pg/mL in [6]; 9 pg/mL in assay [7]. In addition, the “IFN-g (pg/ml); CD4+ T cells of PBMC-1; 293-CIITA pulsed with peptide” value in assay [8] came out at 10200 pg/mL; in assay [9], 76 pg/mL; in assay [10] it was 82 pg/mL; in assay [11], 9290 pg/mL; in assay [12] it was 0 pg/mL; in [13], 0 pg/mL. The “IFN-g (pg/ml); CD4+ T cells of PBMC-1; 293-CIITA pulsed with peptide” value came out at 0 pg/mL in assay [14]; 0 pg/mL in assay [15]; 669 pg/mL in [16]; 22 pg/mL in assay [17]; 0 pg/mL in assay [18]; 1020 pg/mL in assay [19]. In addition, the “IFN-g (pg/ml); CD4+ T cells of PBMC-1; 293-CIITA pulsed with peptide” value in assay [20] came out at 6710 pg/mL; in assay [21] it was 43 pg/mL; in assay [22] it was 45 pg/mL; in [23], 7140 pg/mL; in assay [24], 0 pg/mL; in assay [25], 28 pg/mL. Also, the “IFN-g (pg/ml); CD4+ T cells of PBMC-2; 293-CIITA pulsed with peptide” value was found to be 194 pg/mL in assay [2]; 108 pg/mL in assay [3]; 37 pg/mL in assay [4]; 13200 pg/mL in [5]; 7400 pg/mL in assay [6]; 25 pg/mL in assay [7]. For the same molecule, the “IFN-g (pg/ml); CD4+ T cells of PBMC-2; 293-CIITA pulsed with peptide” value in assay [8] was determined as 10400 pg/mL; in assay [9], 111 pg/mL; in assay [10] it was 226 pg/mL; in assay [11], 8920 pg/mL; in [12] it was 7 pg/mL; in assay [13], 21 pg/mL. In addition, the “IFN-g (pg/ml); CD4+ T cells of PBMC-2; 293-CIITA pulsed with peptide” value was 25 pg/mL in assay [14]; 11 pg/mL in assay [15]; 922 pg/mL in assay [16]; 28 pg/mL in [17]; 22 pg/mL in assay [18]; 1670 pg/mL in assay [19]. The “IFN-g (pg/ml); CD4+ T cells of PBMC-2; 293-CIITA pulsed with peptide” value in assay [20] came out at 6810 pg/mL; in [21] it was 39 pg/mL; in assay [22] it was 78 pg/mL; in assay [23], 9200 pg/mL; in [24] it was 30 pg/mL; in [25] it was 30 pg/mL.
